According to patent US20210388087A1 (Chugai, published 2021):
Residue numbers refer to the chain shown, from its start. In names and notes the source's numbering stands. Blank lines part the entries; values can stand above or below the binder they belong to.

Target: T1, Human CD137 ECD (human)
T1 construct: also called 4-1BB
Assay: single mutant vs template dBBDu183H

T1 sequence (chain, as listed by the source limits assumed): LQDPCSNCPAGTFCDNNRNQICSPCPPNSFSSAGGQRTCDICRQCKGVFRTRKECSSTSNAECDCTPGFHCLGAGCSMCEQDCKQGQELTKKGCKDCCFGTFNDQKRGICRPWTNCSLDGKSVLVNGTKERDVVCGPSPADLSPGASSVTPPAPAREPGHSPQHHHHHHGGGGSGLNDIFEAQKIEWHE

fold change of affinity: 0.8 fold
B1: H183/L072 VH K52bI (antibody, name in Kabat numbering, V domains shown)
VH: QVQLVESGGGLVQPGRSLRLSCAASGFTFSNAWMHWVRQAPGKGLEWVAQIKDIGNAYAAYYAPSVKGRFTISRDDSKNSIYLQMNSLKTEDTAVYYCHYVHYASASTVLPAFGVDAWGQGTTVTVSS
VL: DIVMTQSPLSLPVTPGEPASISCQASQELVHMNRNTYLHWYQQKPGQAPRLLIYKVSNRFPGVPDRFSGSGSGTDFTLKISRVEAEDVGVYYCAQGTSVPFTFGQGTKLEIK

fold change of affinity: 0.6 fold
B2: H183/L072 VH K52bV (antibody, name in Kabat numbering, V domains shown)
VH: B1 VH with I54V
VL: B1 VL

fold change of affinity: 1.4 fold
B3: H183/L072 VH M34I (antibody, name in Kabat numbering, V domains shown)
VH: B1 VH with M34I, I54K
VL: B1 VL

fold change of affinity: 0.6 fold
B4: H183/L072 VH P61M (antibody, name in Kabat numbering, V domains shown)
VH: B1 VH with I54K, P64M
VL: B1 VL

fold change of affinity: 0.1 fold
B5: H183/L072 VH K52bT (antibody, name in Kabat numbering, V domains shown)
VH: B1 VH with I54T
VL: B1 VL

fold change of affinity: 0.3 fold
B6: H183/L072 VH N31S (antibody, name in Kabat numbering, V domains shown)
VH: B1 VH with N31S, I54K
VL: B1 VL

fold change of affinity: 0.9 fold
B7: H183/L072 VH K52bW (antibody, name in Kabat numbering, V domains shown)
VH: B1 VH with I54W
VL: B1 VL

fold change of affinity: 0.4 fold
B8: H183/L072 VH K52bP (antibody, name in Kabat numbering, V domains shown)
VH: B1 VH with I54P
VL: B1 VL

fold change of affinity: 0.2 fold
B9: H183/L072 VH N31Q (antibody, name in Kabat numbering, V domains shown)
VH: B1 VH with N31Q, I54K
VL: B1 VL

fold change of affinity: 0.3 fold
B10: H183/L072 VH N31W (antibody, name in Kabat numbering, V domains shown)
VH: B1 VH with N31W, I54K
VL: B1 VL

fold change of affinity: 0.7 fold
B11: H183/L072 VH K64P (antibody, name in Kabat numbering, V domains shown)
VH: B1 VH with I54K, K67P
VL: B1 VL

fold change of affinity: 0.8 fold
B12: H183/L072 VH L100dA (antibody, name in Kabat numbering, V domains shown)
VH: B1 VH with I54K, L110A
VL: B1 VL

fold change of affinity: 0.3 fold
B13: H183/L072 VH N31G (antibody, name in Kabat numbering, V domains shown)
VH: B1 VH with N31G, I54K
VL: B1 VL

fold change of affinity: 1.1 fold
B14: H183/L072 VH K64M (antibody, name in Kabat numbering, V domains shown)
VH: B1 VH with I54K, K67M
VL: B1 VL

fold change of affinity: 0.3 fold
B15: H183/L072 VH N31L (antibody, name in Kabat numbering, V domains shown)
VH: B1 VH with N31L, I54K
VL: B1 VL

fold change of affinity: 1.2 fold
B16: H183/L072 VH K52bR (antibody, name in Kabat numbering, V domains shown)
VH: B1 VH with I54R
VL: B1 VL

fold change of affinity: 0.4 fold
B17: H183/L072 VH N31H (antibody, name in Kabat numbering, V domains shown)
VH: B1 VH with N31H, I54K
VL: B1 VL

fold change of affinity: 0.1 fold
B18: H183/L072 VH M34H (antibody, name in Kabat numbering, V domains shown)
VH: B1 VH with M34H, I54K
VL: B1 VL

fold change of affinity: 0.6 fold
B19: H183/L072 VH K52bM (antibody, name in Kabat numbering, V domains shown)
VH: B1 VH with I54M
VL: B1 VL

fold change of affinity: 1.1 fold
B20: H183/L072 VH K64L (antibody, name in Kabat numbering, V domains shown)
VH: B1 VH with I54K, K67L
VL: B1 VL

fold change of affinity: 0.6 fold
B21: H183/L072 VH P61L (antibody, name in Kabat numbering, V domains shown)
VH: B1 VH with I54K, P64L
VL: B1 VL

fold change of affinity: 0.4 fold
B22: H183/L072 VH N31P (antibody, name in Kabat numbering, V domains shown)
VH: B1 VH with N31P, I54K
VL: B1 VL

fold change of affinity: 0.3 fold
B23: H183/L072 VH N31I (antibody, name in Kabat numbering, V domains shown)
VH: B1 VH with N31I, I54K
VL: B1 VL

fold change of affinity: 0 fold
B24: H183/L072 VH L100dI (antibody, name in Kabat numbering, V domains shown)
VH: B1 VH with I54K, L110I
VL: B1 VL

fold change of affinity: 0.8 fold
B25: H183/L072 VH K52bS (antibody, name in Kabat numbering, V domains shown)
VH: B1 VH with I54S
VL: B1 VL

fold change of affinity: 0.9 fold
B26: H183/L072 VH L100dM (antibody, name in Kabat numbering, V domains shown)
VH: B1 VH with I54K, L110M
VL: B1 VL

fold change of affinity: 1 fold
B27: H183/L072 VH M34V (antibody, name in Kabat numbering, V domains shown)
VH: B1 VH with M34V, I54K
VL: B1 VL

fold change of affinity: 1 fold
B28: H183/L072 VH K52bY (antibody, name in Kabat numbering, V domains shown)
VH: B1 VH with I54Y
VL: B1 VL

fold change of affinity: 0.3 fold
B29: H183/L072 VH N31A (antibody, name in Kabat numbering, V domains shown)
VH: B1 VH with N31A, I54K
VL: B1 VL

fold change of affinity: 0 fold
B30: H183/L072 VH N31Y (antibody, name in Kabat numbering, V domains shown)
VH: B1 VH with N31Y, I54K
VL: B1 VL

fold change of affinity: 0.5 fold
B31: H183/L072 VH P61I (antibody, name in Kabat numbering, V domains shown)
VH: B1 VH with I54K, P64I
VL: B1 VL

fold change of affinity: 0.8 fold
B32: H183/L072 VH K52bQ (antibody, name in Kabat numbering, V domains shown)
VH: B1 VH with I54Q
VL: B1 VL

fold change of affinity: 0 fold
B33: H183/L072 VH P100eI (antibody, name in Kabat numbering, V domains shown)
VH: B1 VH with I54K, P111I
VL: B1 VL

fold change of affinity: 0.3 fold
B34: H183/L072 VH M34P (antibody, name in Kabat numbering, V domains shown)
VH: B1 VH with M34P, I54K
VL: B1 VL

fold change of affinity: 2.5 fold
B35: H183/L072 VH M34F (antibody, name in Kabat numbering, V domains shown)
VH: B1 VH with M34F, I54K
VL: B1 VL

fold change of affinity: 0.8 fold
B36: H183/L072 VH P61A (antibody, name in Kabat numbering, V domains shown)
VH: B1 VH with I54K, P64A
VL: B1 VL

fold change of affinity: 1.8 fold
B37: H183/L072 VH M34L (antibody, name in Kabat numbering, V domains shown)
VH: B1 VH with M34L, I54K
VL: B1 VL

fold change of affinity: 0.2 fold
B38: H183/L072 VH K52bN (antibody, name in Kabat numbering, V domains shown)
VH: B1 VH with I54N
VL: B1 VL

fold change of affinity: 0 fold
B39: H183/L072 VH M34Y (antibody, name in Kabat numbering, V domains shown)
VH: B1 VH with M34Y, I54K
VL: B1 VL

fold change of affinity: 1.1 fold
B40: H183/L072 VH K64I (antibody, name in Kabat numbering, V domains shown)
VH: B1 VH with I54K, K67I
VL: B1 VL

fold change of affinity: 0.2 fold
B41: H183/L072 VH N31F (antibody, name in Kabat numbering, V domains shown)
VH: B1 VH with N31F, I54K
VL: B1 VL

fold change of affinity: 0.2 fold
B42: H183/L072 VH N31V (antibody, name in Kabat numbering, V domains shown)
VH: B1 VH with N31V, I54K
VL: B1 VL

fold change of affinity: 0.5 fold
B43: H183/L072 VH P100eA (antibody, name in Kabat numbering, V domains shown)
VH: B1 VH with I54K, P111A
VL: B1 VL

fold change of affinity: 0.5 fold
B44: H183/L072 VH N31T (antibody, name in Kabat numbering, V domains shown)
VH: B1 VH with N31T, I54K
VL: B1 VL

fold change of affinity: 1.2 fold
B45: H183/L072 VH K64A (antibody, name in Kabat numbering, V domains shown)
VH: B1 VH with I54K, K67A
VL: B1 VL

fold change of affinity: 0.5 fold
B46: H183/L072 VH K52bL (antibody, name in Kabat numbering, V domains shown)
VH: B1 VH with I54L
VL: B1 VL

fold change of affinity: 0 fold
B47: H183/L072 VH N53Y (antibody, name in Kabat numbering, V domains shown)
VH: B1 VH with I54K, N56Y
VL: B1 VL
